# Assay results from patent US10006009B2, “Codon-optimized gene for mutated shrimp luciferase and method for use thereof” (JNC CORPORATION, priority 2013, dated 2018).
# B1: nanoKAZ gene: codon-optimized gene for the mutated catalytic 19 kDa domain of Oplophorus luciferase, SEQ ID NO: 2 (nucleic acid)
# DNA: ATGGTCTTCACCCTGGAGGACTTCGTCGGCGACTGGAGACAGACCGCCGGCTACAACCTGGACCAGGTCCTGGAGCAGGGCGGCGTCAGCAGCCTGTTCCAGAACCTGGGCGTCAGCGTCACCCCCATCCAGAGAATCGTCCTTAGCGGCGAGAACGGCCTGAAGATCGACATCCACGTCATCATCCCCTACGAGGGCCTGAGCGGCGACCAGATGGGCCAGATCGAGAAGATCTTCAAGGTCGTCTACCCCGTCGACGACCACCACTTCAAGGTCATCCTGCACTACGGCACCCTGGTCATCGACGGCGTCACCCCCAACATGATCGACTACTTCGGTAGACCCTACGAGGGCATCGCCGTCTTCGACGGCAAGAAGATCACCGTCACCGGCACCCTGTGGAACGGCAACAAGATCATCGACGAGAGACTGATCAACCCCGACGGCAGCCTGCTGTTCAGAGTCACCATCAACGGCGTCACCGGCTGGAGACTGTGCGAGAGAATCCTGGCCTAA
# modifications: synthetic DNA
# B2: nanoKAZ: mutated catalytic 19 kDa domain protein of Oplophorus luciferase encoded by the codon-optimized gene (SEQ ID NO: 1) (protein)
# chain: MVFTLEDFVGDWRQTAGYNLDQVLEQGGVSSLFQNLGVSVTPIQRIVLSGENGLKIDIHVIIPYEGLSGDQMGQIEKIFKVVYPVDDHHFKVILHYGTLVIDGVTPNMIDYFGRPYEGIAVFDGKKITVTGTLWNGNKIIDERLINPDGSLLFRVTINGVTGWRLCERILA
# Test system: CHO-K1 cells
# Assay: Comparison of expression between nanoKAZ and nanoLuc genes in CHO-K1 cells
# Assay type: cell-based, Chinese hamster
# Text: In order to compare the gene expression efficiency between the nanoKAZ gene and the nanoLuc gene in the cultured cell system, an expression vector that was different only in the nanoKAZ gene sequence and the nanoLuc gene sequence was constructed. The expression vector constructed was transfected to CHO-K1 cells. Then, the expression level of luciferase activity was compared by the following procedure. In the nanoLuc gene, the gene sequence described in Hall et al. (2012) ACS Chem. Biol. […] was chemically synthesized and provided for use.
# The vector was introduced into CHO-K1 cells by the method described in EXAMPLE 3. After incubation for 23 hours, the culture medium and the cell extract were recovered. The luminescence activity in the culture medium and the cells was measured by the method described in EXAMPLE 4, using coelenterazine as a light-emitting substrate.
Molecule,"expression relative to the nanoLuc gene (without secretory signal, in the culture medium and the cells)","luminescence activity relative to nanoLuc (with signal peptide, secreted into the culture medium)"
B1,about 2 fold,–
B2,–,about 1.4 fold
